T1: GII.4 Houston 2002 (ABY27560.1) VLPs (human norovirus GII.4 Houston 2002, UniProt P54635 1-539)
T1 construct: also called GII.4 Houston 2002 antigen; GII.4 Houston VLPs
T1 chain: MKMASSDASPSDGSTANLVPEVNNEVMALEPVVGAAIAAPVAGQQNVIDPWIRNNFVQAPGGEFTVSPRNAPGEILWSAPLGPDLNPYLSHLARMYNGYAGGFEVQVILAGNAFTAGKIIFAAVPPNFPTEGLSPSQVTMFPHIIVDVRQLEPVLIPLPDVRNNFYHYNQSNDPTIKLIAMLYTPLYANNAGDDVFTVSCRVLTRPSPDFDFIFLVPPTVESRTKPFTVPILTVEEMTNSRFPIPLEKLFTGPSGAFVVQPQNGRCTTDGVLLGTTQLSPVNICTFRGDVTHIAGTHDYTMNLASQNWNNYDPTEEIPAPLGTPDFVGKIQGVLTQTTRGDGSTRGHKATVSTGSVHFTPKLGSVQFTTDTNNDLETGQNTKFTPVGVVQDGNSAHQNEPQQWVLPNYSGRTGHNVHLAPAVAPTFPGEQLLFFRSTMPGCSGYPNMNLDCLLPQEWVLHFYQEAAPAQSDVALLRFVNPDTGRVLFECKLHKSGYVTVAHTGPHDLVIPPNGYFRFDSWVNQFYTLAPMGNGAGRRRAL

T2: GII.4 Sydney 2012 virus-like particles (VLPs), based on strain AFV08795.1 (human norovirus GII.4 Sydney 2012, UniProt P54635 1-538)
T2 construct: also called GII.4 VLPs
T2 chain: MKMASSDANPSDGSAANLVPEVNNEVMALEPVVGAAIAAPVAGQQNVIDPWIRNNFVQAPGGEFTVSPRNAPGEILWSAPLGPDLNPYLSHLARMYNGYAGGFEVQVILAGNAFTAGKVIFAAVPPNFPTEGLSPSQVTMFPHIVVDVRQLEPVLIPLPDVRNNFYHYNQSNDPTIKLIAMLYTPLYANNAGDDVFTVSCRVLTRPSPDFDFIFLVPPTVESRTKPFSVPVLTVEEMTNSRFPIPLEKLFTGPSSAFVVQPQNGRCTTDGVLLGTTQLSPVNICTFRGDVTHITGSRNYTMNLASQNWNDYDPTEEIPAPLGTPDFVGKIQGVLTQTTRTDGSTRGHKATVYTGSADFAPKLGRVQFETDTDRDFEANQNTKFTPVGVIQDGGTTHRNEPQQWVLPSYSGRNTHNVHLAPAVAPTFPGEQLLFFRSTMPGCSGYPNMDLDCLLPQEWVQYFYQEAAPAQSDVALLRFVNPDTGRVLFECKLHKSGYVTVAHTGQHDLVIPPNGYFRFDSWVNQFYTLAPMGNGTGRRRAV


How the values were obtained:
[1] = biological target: T1, GII.4 Houston 2002 (ABY27560.1) VLPs; experiment: ELISA on GII.4 Houston 2002 VLPs
[2] = biological target: T2, GII.4 Sydney 2012 virus-like particles …; experiment: indirect ELISA on coated GII.4 Sydney 2012 VLPs
[3] = biological target: GII.4 Sydney 2012 virus-like particles (VLPs), based on strain AFV08795.1 (human norovirus GII.4 Sydney 2012, UniProt P54635 1-538); experiment: indirect ELISA on coated GII.4 Sydney 2012 VLPs

Binder | binding result [1] | EC50 [2] [µg/mL] | EC50 [3] [µg/mL]
NORO-123 (antibody, V domains shown) VH: QVQLVESGGGVVQPGRSLRLSCSTSGFTFSQYPMHWVRQAPGKGLEWVALISYDGMNKYYADSVRGRFTISRDNSENTQYLQMNSLRGDDTAVYYCARVTGDCTGNRCSYWAYYYYGLDVWGQGTLVTVSS VL: QSALTQPPSASGSPGQSVTISCTGTSSDVGGYKYVSWYQQHPGKAPKLMIYEVTRRPSGVPDRFSGSKSGNTAFLTVSGLQAEDEADYYCGSYAGSTTSGYVFGTGTKVIVL | binds | 5.4 | 
NORO-310A (antibody, V domains shown) VH: EVQLVESGGGLVRPGESLRLSCVASGFSVSDNYMSWVRQAPGKGLQWVSVIYSGGTTFYTDSVKGRFTISRDKSKNTLFLQMNSLRAEDTAVYFCTRDPSQYYDSRGHYYQTFTPSFDSWGQGTLVTVSS VL: DIQMTQSPSVMSASVGDRVTITCRASQDISDYLAWFQQKPGKVPKRLIYAASSLQNGVPSRFSGSGSGTEFTLTISSLQPEDFATYYCLQHDTYPLTFGGGTKVEIK | binds | 6.2 | 
NORO-327A (antibody, V domains shown) VH: QVQLEVSGGGLVKPGGSLRLSCAASGFTFTDYYMSWIRQAPGKGLEWVAYISGIMSSTKYADSVKGRFTISRDNGKNSVYLQMNSLTAEDTAVYYCARERVEPPSAVTDFWGQGTLVTVSS VL: QSVLTQSPSVSGAPGQRVTISCTGTSSNIGAGYDVHWYQQFPGTAPKLLISHNTNRPSGVPDRFSGSKSGTSASLAITGLQAEDEADYYCQSFDSSLRGSRVFGGGTKLTVL |  |  | 0.6
NORO-278 (antibody, V domains shown) VH: QVQLVESGGGVVQPGRSLRLSCAASGFTFSSYGMHWVRQAPGKGLEWVAVISYDGSNKYYADSVKGRFTISRDNSKNTLYLQMNSLRAEDTAVYYCAKVTIIAAADLLDYWGQGTLVTVSS VL: QSVLTQPPSVSGAPGQRVTISCTGSSSNIGAGYDVHWYQQLPGTAPKLLIYGNSNRPSGVPDRFSGSKSGTSASLAITGLQAEDEADYYCQSYDSSLSGPVVFGGGTKLTVL | binds | 4 | 
NORO-246A (antibody, V domains shown) VH: EVHLVESGGGLVKPGGSLRLSCAASGFTFSRYGMHWVRQAPGKGLEWVSSIVIRSDYKYYADSVKGRFTISRDNAKNSLYLQMNSLRADDTAVYYCARDLVEPGITPVGCDYWGRGTLVTVSS VL: SNELTQAPSVSVSPGQTARITCFGDALANQYSYWYQRKPGQAPVLVIYKDSERPSGIPQRFSASNSGTTVTLTITGVQAEDEADYFCQSADSTGIYKVFGGGTKLTVL |  |  | 0.2
NORO-296A (antibody, V domains shown) VH: QVQLVESGGGLVKPGGSLRLSCAASGFTFSEYYMSWVRQAPGKALEWVSYITSSFSSTSYADSVKGRFVISRDNAKNSLYLQMNSLRVEDTAVYYCARYGAEYGSRSFYFLDWGQGTLVTVSS VL: QSVLTQPPSVSGAPEQRVTISCTGSSSNIGAGYDVHWYQVLPGIAPKLLIYDNNKRPSGVPDRFSGSKSGTSASLAITGLQAEDEADYYCQSYDSRLSSNVVFGGGTKLTVL | binds |  | 
NORO-263 (antibody, V domains shown) VH: QVQLVESGGGLVKPGGSLRLSCAASGFTLSDYYMSWIRQAPGKGLEWVAYISSSHTSTYYRDSVKGRFTISRDSAKKSLYLQMNSLRVEDTAIYYCARDWVGGRSAYSDHWGQGTLVTVSS VL: SYELTQPPSVSVSPGQTARITCSGDALPRRPAFWYQQKSGQAPVLVMYDDSKRPSGIPERFSGSSSGTVATLTISGAQVEDEADYHCYSTDSSGKERVFGGGTKLTVL | binds | 0.6 | 
NORO-279A (antibody, V domains shown) VH: QVQLVESGGGVVQPGRSLRLSCAASGFTFTKYGMHWVRQAPGKGLEWVAFIAYDGSVKYYGDSAKGRFAISRDNPKNTVYLQMNSLRAEDTAVYYCAKVEIHYYSNSLLGMDVWGQGTLVTVSS VL: QSVLTQPPSASGTPGQRVTISCSGGNSNIGISYVYWYQHLPGTAPKLLISKNNLRPSGVPDRFSASKSGTSASLAISGLRSEDEAEYYCATLDINMTWVFGGGTKLTVL | binds | 0.2 | 
NORO-250B (antibody, V domains shown) VH: QVQLVESGGGLVKPGGSLTLSCAASGFTFSDYYMNWIRQAPGKRLEWVSYISGIMSSTNYADSVKGRFTISRDTAKKSVYLQMNSLRAEDTAVYYCARATSQGATSYYFDSWGQGTLVTVSS VL: QSVLTQPPSVSGAPGQRVTISCTGSSSNIGADYDVHWYQQLPGAAPRLLIYADINRPSGVPDRFSGSKSGTSASLAITGLQAEDEADYYCQSYDRSVSGSAVFGGGTKVTVL | binds |  | 
NORO-251A (antibody, V domains shown) VH: QVQLVESGGGVVQPGRSLRLSCAASGFTFRSYGIHWVRQAPGKGLEWVALISYDGSSKYYADSVKGRFTISRDNSKNTLYLQMNSLRSEDTAVYYCAKVRLTSYSIGWFSFDYWGQGTLVTVSS VL: QSVLTQPPSVSAAPGQKVTISCSGSSSNIANYYVSWYQQLPGRAPKLLIYDNNKRPSGIPDRISGSKSGTSATLGITGLQTGDEADYYCGTWDTSLSAWVFGGGTKLTVL | binds | 0.9 | 
NORO-232A.2 (antibody, V domains shown) VH: QVQLKQWGAGLLKSSETLSLTCAFNGNSFGAFYWSWIRLSPGKGLEWIGEVNYLGGADYNPSLKSRVTMSADTSKRQFSLSLKSVTAADTGVYFCARGRPHDYSPGSYSRPRRYYGLDVWGQGTTVTVSS VL: EIVLTQSPATLSLSPGDSATLSCRASQAVSTTYLAWYQQTRGQAPRLLIHGTYTRAIGIPDKFSGTGSGTDFTLTISGLAPEDFAVYYCQQYSSSPYTFGQGTKIEIT |  |  | 0.3
NORO-273A (antibody, V domains shown) VH: QVQLVQSGAEVKKPGASVKISCKASGYDFTSFPMHWVRLGPGQRLEWMGWISAANGNTKYSQKFQDRFTITRDTSASIVHMELSSLRSEDTAVYYCARGGYSSGLYRYSNYYYGMTVWGQGTLVTVSS VL: DIVMTQTPLSLSVTPGQPASISCKSSESLLHNDRKTYLFWYLQKPGQPPQLLIFQVSNRFSGVPDRFSGSGSGTDFTLRISRVEAEDVGIYYCLQTTQLPLTFGGGTKVEIK | binds | 0.2 | 
NORO-315B (antibody, V domains shown) VH: QVQLVESGGGLVKPGGSLRLSCVASGFTFSDYYMTWFRQTPGRGLEWLSYISAIGGYTEYADSVKSRFIISRDNGKKSLYLQMNSLRAEDSGVYYCAREDCHGTSCYSGDWGQGTLVTVSS VL: QSVLTQPPSVSGAPGQRVTISCTGSSSNIGAGYDVHWYQQLPGTAPKLLIYHNTNRPSGVPDRFSGSKSGTSAYLTITGLQAEDEADYYCQSYDRSLSKSRVFSGGTKLTVL | binds | 0.7 | 
NORO-303 (antibody, V domains shown) VH: QVQLVESGGGVVQPGRSLRLSCAASGFIFSSYAMHWVRQAPGKGLEWVAVMSYDGNNKYYADSVKGRFTISRDNSKNTLFLQMNSLRPEDTAVYYCARDCRVGWVFTYGMDVWGQGTLVTVSS VL: QSALTQPPSASGSPGQSVTISCTGTSSDVGGYNYVSWYQQHPGKAPKLMMYEISKRPSGVPIRFSGSKSGNTASLTVSGLQAEDEADYYCSSYAGTYNCVVFGGGTKLTVL | binds | 0.5 | 
NORO-313.1 (antibody, V domains shown) VH: QVQLVESGGGLVKPGGSLRLSCAASGFTFSDFYMSWIRQAPGKGLEWVGYISSIAGATNYADSVKGRFTISRDSSKRSLYLQMNSLRVEDTAVYYCARMGRLELERRPHYYYPLDVWGQGTLVTVSS VL: not shown | binds |  | 
NORO-256A (antibody, V domains shown) VH: QVQLVESGGGVVQAGRSLRLSCAASGFTFRSYGMHWVRQAPGKGLEWVAIISYDGGSKYYADSVKGRFTISRDNSKNTLYLQMNSLRVEDTALYYCAKDFLRVYSYGWHSFDIWGLGTLVTVSS VL: QSVLTQPPSVSAAPGQRVTISCSGSSSNIGTYYVSWYQHLPGTAPKLLIYDNDKRPSGIPDRFSASKSGTSATLDIAGLQTGDEADYYCGTWDLSLTAGWVFGGGTKLTVL | binds | 0.9 | 

— patent US20210324050A1 (VANDERBILT UNIVERSITY, published 2021)
